Experimental data as given in paper PMC3382138, “On the Structure and Function of the Phytoene Desaturase CRTI from Pantoea ananatis, a Membrane-Peripheral and FAD-Dependent Oxidase/Isomerase” (PLoS ONE, 2012).

Assays:
[1] = tested on: CC(C)=CCC/C(C)=C/CC/C(C)=C/CC/C(C)=C/C=C\C=C(/C)CC/C=C(\C)CC/C=C(\C)CCC=C(C)C; assay: purified protein; conditions: 150 µM FAD, phytoene 0.8-9.2 µM (apparent bulk concentration) in phosphatidyl-choline liposomes, aerobic, phosphate pH 8.0, 100 mM NaCl, 37 °C, 12 min, not saturated
[2] = tested on: Cc1cc2nc3c(=O)[nH]c(=O)nc-3n(C[C@H](O)[C@H](O)[C@H](O)COP(=O)(O)OP(=O)(O)OC[C@H]3O[C@@H](n4cnc5c(N)ncnc54)[C@H](O)[C@@H]3O)c2cc1C; assay: purified protein; conditions: phytoene 7 µM (7.5 µM in Figure 4 legend) in phosphatidyl-choline liposomes, aerobic, phosphate pH 8.0, 100 mM NaCl, 37 °C, 12 min, varied: cofactor

With CRTI (CRTI-His6) (Pantoea ananatis) the Km [1] was 16.7 ± 1.9 µM and the Km [2] was 50.5 ± 2.9 µM.
